Five molecules from article PMC8750366, “Role of the Redox State of Human Peroxiredoxin-5 on Its TLR4-Activating DAMP Function” (Antioxidants, 2021) can be followed below.

The target of data set [1] is recombinant human TLR4 (R&D Systems) (human) (UniProt O00206). The experiment in a line: AFM single-molecule force spectroscopy; PRDX5 grafted on the AFM tip by a PEG24 linker, TLR4 covalently attached to an alkanethiol SAM on gold (NHS/EDC); PBS, ~25 °C; retraction speeds 100 nm/s to 10 µm/s; Bell-Evans fit.
Sequence of recombinant human TLR4 (R&D Systems) (human) (O00206 24-631): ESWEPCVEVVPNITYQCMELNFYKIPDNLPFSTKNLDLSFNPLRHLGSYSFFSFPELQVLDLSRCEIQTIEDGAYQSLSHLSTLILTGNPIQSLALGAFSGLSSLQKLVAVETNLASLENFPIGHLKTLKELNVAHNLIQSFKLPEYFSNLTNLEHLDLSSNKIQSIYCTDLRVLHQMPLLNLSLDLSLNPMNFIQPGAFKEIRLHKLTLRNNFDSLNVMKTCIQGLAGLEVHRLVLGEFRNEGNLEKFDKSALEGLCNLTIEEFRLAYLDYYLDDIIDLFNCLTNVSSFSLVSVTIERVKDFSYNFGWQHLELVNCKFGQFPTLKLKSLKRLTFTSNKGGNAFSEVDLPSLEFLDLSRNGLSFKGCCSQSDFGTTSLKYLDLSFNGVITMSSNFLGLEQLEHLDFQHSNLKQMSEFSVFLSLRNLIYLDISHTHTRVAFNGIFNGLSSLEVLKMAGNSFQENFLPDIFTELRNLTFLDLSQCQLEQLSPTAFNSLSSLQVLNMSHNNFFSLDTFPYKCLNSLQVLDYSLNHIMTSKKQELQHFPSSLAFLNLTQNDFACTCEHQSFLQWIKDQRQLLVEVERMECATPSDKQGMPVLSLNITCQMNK
The target of data set [2] is C47S mutant N-terminal 6xHis-tagged human peroxiredoxin-5 (human). The data set is described as follows: SEC-MALS; 50 µL loaded on Superdex 200 Increase 10/300 GL (and Superdex 75 Increase, data not shown), PBS running buffer pH 7.4; Zimm fit. On the technique in general: Size exclusion chromatography separates by hydrodynamic size, large species first.
Data set [3] deals with TLR4-YFP stably expressed on HEK293 MD2-CD14 cells (UniProt O00206). The data set is described as follows: flow cytometry on cells; living HEK293 MD2-CD14 TLR4 cells exposed to 1 µM of the PRDX5 redox forms or increasing dsPRDX5 in DMEM, 40 min on ice; detected with anti-PRDX5 serum and Alexa Fluor 647 Plus secondary antibody; MFI of untreated cells subtracted. In general terms: Flow cytometry measures light scatter and fluorescence of single cells or particles in a stream.
Sequence of TLR4-YFP stably expressed on HEK293 MD2-CD14 cells (UniProt O00206) (O00206 24-839): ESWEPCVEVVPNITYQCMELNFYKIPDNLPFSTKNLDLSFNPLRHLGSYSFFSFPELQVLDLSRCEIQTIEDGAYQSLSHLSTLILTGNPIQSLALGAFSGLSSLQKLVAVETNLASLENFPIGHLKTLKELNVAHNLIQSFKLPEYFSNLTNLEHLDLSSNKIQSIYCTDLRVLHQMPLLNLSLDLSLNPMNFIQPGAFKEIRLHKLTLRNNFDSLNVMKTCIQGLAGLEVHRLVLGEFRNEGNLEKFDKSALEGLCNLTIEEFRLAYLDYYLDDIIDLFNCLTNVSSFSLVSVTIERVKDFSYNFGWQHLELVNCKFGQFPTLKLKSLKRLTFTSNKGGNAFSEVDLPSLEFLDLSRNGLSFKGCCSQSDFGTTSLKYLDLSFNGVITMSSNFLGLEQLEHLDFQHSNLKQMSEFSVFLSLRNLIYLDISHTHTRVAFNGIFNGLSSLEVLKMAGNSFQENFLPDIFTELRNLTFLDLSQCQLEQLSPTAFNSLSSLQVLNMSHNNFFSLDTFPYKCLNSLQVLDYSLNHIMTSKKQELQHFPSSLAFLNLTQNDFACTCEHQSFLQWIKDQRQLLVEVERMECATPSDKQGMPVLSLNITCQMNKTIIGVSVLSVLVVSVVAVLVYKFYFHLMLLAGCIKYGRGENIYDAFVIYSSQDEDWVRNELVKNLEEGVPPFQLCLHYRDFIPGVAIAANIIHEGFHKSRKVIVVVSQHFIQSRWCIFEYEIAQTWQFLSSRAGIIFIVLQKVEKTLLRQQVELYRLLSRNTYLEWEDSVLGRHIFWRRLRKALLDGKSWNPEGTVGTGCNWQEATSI

Data set [4] shares this target.
The target of data set [5] is TLR4-YFP stably expressed on HEK293 MD2-CD14 cells (UniProt O00206 24-839). The experiment in a line: cell-based or functional assay.
Sequence of TLR4-YFP stably expressed on HEK293 MD2-CD14 cells (UniProt O00206 24-839) (O00206 24-839): as above
Data set [6] deals with the molecule itself. The data set is described as follows: SEC-MALS; 50 µL loaded on Superdex 200 Increase 10/300 GL (and Superdex 75 Increase, data not shown), PBS running buffer pH 7.4; Zimm fit.

For orientation: koff means a measure of how fast the partners let go of each other. In general, stoichiometry N refers to the number of molecules, sites or subunits per partner or assembly.

Values joined by “and” are separate entries in the source; they are usually repeats but may differ in a detail not shown here. Identical values can stand only once.

With “recombinant wild-type N-terminal 6xHis-tagged human peroxiredoxin-5, disulfide (oxidized) form (from UniProt P30044 54-214)”, in data set [1], the koff was found to be 1.02 s⁻¹.

On to “C47S mutant N-terminal 6xHis-tagged human peroxiredoxin-5 (enzyme)”, for which the stoichiometry N in data set [2] was 2 and 4. In addition, the fold decrease in binding propensity compared to dsPRDX5 in data set [3] stood at 3 fold. This molecule also returned an IL-8 secretion from HEK293 MD2-CD14 TLR4 cells, 2 µM protein, 16 h, ELISA in data set [4] of 893 pg/mL. Further, in data set [1], the koff is 1.97 s⁻¹.

B1: chemically reduced and alkylated recombinant human peroxiredoxin-5 (enzyme)
chain: APIKVGDAIPAVEVFEGEPGNKVNLAELFKGKKGVLFGVPGAFTPGCSKTHLPGFVEQAEALKAKGVQVVACLSVNDAFVTGEWGRAHKAEGKVRLLADPTGAFGKETDLLLDDSLVSIFGNRRLKRFSMVVQDGIVKALNVEPDGTGLTCSLAPNIISQL
modifications: cysteine thiols alkylated with iodoacetamide (carbamidomethyl groups), more likely on the two Cys involved in the disulfide bond (C47, C151)
notes: human peroxiredoxin-5 (PRDX5), wild type, same construct as m1; Made from m1 by chemical treatment; Mainly a dimer by SEC-MALS; also called r/aPRDX5; reduced PRDX5; source: dsPRDX5 (E. coli M15, purified) treated with 10 mM DTT, then 55 mM iodoacetamide, ultra-filtered; not shown: His6, N-terminal, kept
Take B1: in data set [1], the koff worked out at 2.47 s⁻¹. Also, in data set [5], the “IL-8 secretion from HEK293 MD2-CD14 TLR4 cells, 2 µM protein, 16 h, ELISA” value (“IL-8 secretion” for short) was 2440 pg/mL. The “stoichiometry N” value in data set [6] worked out at 2.

B2: recombinant wild-type N-terminal 6xHis-tagged human peroxiredoxin-5, disulfide (oxidized) form (enzyme)
chain: APIKVGDAIPAVEVFEGEPGNKVNLAELFKGKKGVLFGVPGAFTPGCSKTHLPGFVEQAEALKAKGVQVVACLSVNDAFVTGEWGRAHKAEGKVRLLADPTGAFGKETDLLLDDSLVSIFGNRRLKRFSMVVQDGIVKALNVEPDGTGLTCSLAPNIISQL
modifications: disulfide bridge between C47 and C151
notes: human peroxiredoxin-5 (PRDX5), wild type; calculated mass with reduced thiols 18,297.81 Da; Mainly a dimer by SEC-MALS, with ~30% monomers; also called dsPRDX5; PRDX5; source: E. coli M15 (pRep4), pQE-30, purified (Ni-NTA), dialyzed against PBS; not shown: His6, N-terminal, kept
As for B2, the “IL-8 secretion” value in data set [5] is 4610 pg/mL. For the same molecule, the “stoichiometry N” value in data set [6] is 2.

B3: hyperoxidized recombinant human peroxiredoxin-5 (enzyme)
chain: APIKVGDAIPAVEVFEGEPGNKVNLAELFKGKKGVLFGVPGAFTPGCSKTHLPGFVEQAEALKAKGVQVVACLSVNDAFVTGEWGRAHKAEGKVRLLADPTGAFGKETDLLLDDSLVSIFGNRRLKRFSMVVQDGIVKALNVEPDGTGLTCSLAPNIISQL
modifications: Cys sulfinic (-SO2H) and/or sulfonic (-SO3H) acids; only partially hyperoxidized (~42% of species), a proportion of species keeps the disulfide bridge
notes: human peroxiredoxin-5 (PRDX5), wild type, same construct as m1; Made from m1 by chemical treatment; a mix of species; Mainly a dimer by SEC-MALS; also called s/sPRDX5; hyperoxidized PRDX5; source: dsPRDX5 (E. coli M15, purified) treated with 10 mM DTT, then 5 mM H2O2, ultra-filtered; not shown: His6, N-terminal, kept
Take B3: the “IL-8 secretion” value in data set [5] stood at 1450 pg/mL. Moreover, the “stoichiometry N” value in data set [6] is 2 and 4.
